Series [1] deals with BCL-wΔNΔC (aa 40-156; α2-α8) (human) (UniProt Q92843). Kind of series: SEC.
The target of series [2] is BCL-wΔN (aa 40-193; α2-α9) (human) (UniProt Q92843). Kind of series: SEC.
Series [3] concerns the target T1, full-length monomeric BCL-w (aa 1-193) (human), Q92843.
T1 chain: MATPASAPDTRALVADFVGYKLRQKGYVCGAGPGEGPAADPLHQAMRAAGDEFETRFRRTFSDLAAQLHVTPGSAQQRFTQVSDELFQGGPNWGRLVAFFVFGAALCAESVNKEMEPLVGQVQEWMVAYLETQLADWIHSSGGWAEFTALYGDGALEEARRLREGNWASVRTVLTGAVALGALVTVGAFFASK
Kind of series: SEC-MALS. To be noted: remark: other sources report otherwise.

The target of series [4] is T1, full-length monomeric BCL-w (aa 1-193) …. Put plainly: SEC-SAXS. To be noted: remark: other sources report otherwise.
Series [5] deals with the molecule itself. Put plainly: SEC.
Series [6] concerns the molecule itself. Put plainly: SEC. This is another data set of the same source.

Numbering of substitutions follows the chain as printed. Numbers in names are those of the source. Read-outs that look alike come from different tables or passages of the source.

“BCL-wΔNΔC (aa 40-156; α2-α8) (from UniProt Q92843 40-156) (domain or fragment)” gave a stoichiometry N in series [1] of 2.

As for “BCL-wΔN (aa 40-193; α2-α9) (from UniProt Q92843 40-193) (domain or fragment)”, in series [2], the stoichiometry N stood at 2.

B1: full-length monomeric BCL-w (aa 1-193), Q92843 1-193 (natural protein)
chain: T1 chain
In the case of B1, the stoichiometry N in series [3] and in series [4] was 2 throughout.

B2: BCL-w G94E (full length) (natural protein, human, UniProt Q92843 1-193, looked up)
chain: T1 chain with G94E
Consider B2, for which the “stoichiometry N” value in series [5] was determined as 2.

B3: GFP-BCL-w α1-α8 (aa 1-156) (domain or fragment, human, UniProt Q92843 1-156, looked up)
chain: MATPASAPDTRALVADFVGYKLRQKGYVCGAGPGEGPAADPLHQAMRAAGDEFETRFRRTFSDLAAQLHVTPGSAQQRFTQVSDELFQGGPNWGRLVAFFVFGAALCAESVNKEMEPLVGQVQEWMVAYLETQLADWIHSSGGWAEFTALYGDGAL
Take B3: the “stoichiometry N” value in series [6] was found to be 2.

B4: BCL-wΔC (aa 1-156; α1-α8) (domain or fragment, human, UniProt Q92843 1-156, looked up)
chain: B3 chain
On to B4, for which, in series [5], the “stoichiometry N” value worked out at 2.
